Source: patent publication US20190112340A1

Tests used:
[1] = target: RSV F DS-Cav1 (human RSV subtype A (strain A2)) (UniProt P03420); experiment: BLI (Octet), F on Ni-NTA tips, Fab in solution
[2] = target: RSV F sc9-9 DS-Cav1 (human RSV subtype A (strain A2)) (UniProt P03420); experiment: BLI (Octet), F on Ni-NTA tips, Fab in solution
[3] = target: sc9-10 DS-Cav1 Q98C, Q361C L95M-I221M-R429K (B18537); experiment: BLI (Octet), F on Ni-NTA tips, Fab in solution
[4] = target: sc9-10 DS-Cav1 N183GC,N428C; experiment: BLI (Octet), F on Ni-NTA tips, Fab in solution
[5] = target: sc9-10 DS-Cav1 N183GC, N428C S46G-N67I-E92D-S215P-K465Q (A2); experiment: BLI (Octet), F on Ni-NTA tips, Fab in solution
[6] = target: sc9-10 DS-Cav1 Q98C, Q361C S46G-E92D-L95M-S215P-I217P-I221M-R429K-K465Q (Long (VR26)); experiment: BLI (Octet), F on Ni-NTA tips, Fab in solution
[7] = target: RSV F sc9-10 DS-Cav1 (human RSV subtype A (strain A2)); experiment: BLI (Octet), F on Ni-NTA tips, Fab in solution
sc9 DS-Cav1-105Q = experiment: BLI (Octet), F on Ni-NTA tips, Fab in solution
sc9-19 DS-Cav1 = experiment: BLI (Octet), F on Ni-NTA tips, Fab in solution
[8] = target: sc9-10 DS-Cav1 A149C, Y458C S46G-E92D-S215P-K465Q (A2); experiment: BLI (Octet), F on Ni-NTA tips, Fab in solution
[9] = target: sc9-10 DS-Cav1 A149C, Y458C S46G-S215P-K465Q (A2); experiment: BLI (Octet), F on Ni-NTA tips, Fab in solution
[10] = target: sc9-10 DS-Cav1 A149C, Y458C S46G-N67I-E92D-S215P-K465Q (A2); experiment: BLI (Octet), F on Ni-NTA tips, Fab in solution
sc9-24 DS-Cav1 = experiment: BLI (Octet), F on Ni-NTA tips, Fab in solution
sc11 DS-Cav1 = experiment: BLI (Octet), F on Ni-NTA tips, Fab in solution
sc10 DS-Cav1 = experiment: BLI (Octet), F on Ni-NTA tips, Fab in solution
sc8 DS-Cav1 = experiment: BLI (Octet), F on Ni-NTA tips, Fab in solution
[11] = target: RSV F sc9 DS-Cav1 (human RSV subtype A (strain A2)); experiment: BLI (Octet), F on Ni-NTA tips, Fab in solution
[12] = target: sc9-10 A DS-Cav1 A149C, Y458C; experiment: BLI (Octet), F on Ni-NTA tips, Fab in solution
sc9-10 Cav1only 369-455 = experiment: ELISA after 1 week at 4 °C
[13] = target: sc9-10 A149C Y458C Long CAV1only; experiment: ELISA after 1 week at 4 °C
sc9-10 Cav1only 99-360 = experiment: ELISA after 1 week at 4 °C
[14] = target: RSV F DS-Cav1 (human RSV subtype A (strain A2)) (UniProt P03420); experiment: ELISA after 1 week at 4 °C
sc9-10 Cav1only 100-361 = experiment: ELISA after 1 week at 4 °C
sc9-10 Cav1only 98-360 = experiment: ELISA after 1 week at 4 °C
sc9-10 Cav1only = experiment: ELISA after 1 week at 4 °C
sc9-10 Cav1only 99-361 = experiment: ELISA after 1 week at 4 °C
RSVF Cav1only = experiment: ELISA after 1 week at 4 °C
sc9-10 Cav1only 100-362 = experiment: ELISA after 1 week at 4 °C
sc9-10 Cav1only 98-362 = experiment: ELISA after 1 week at 4 °C
RSVF dFP = experiment: ELISA after 1 week at 4 °C
sc9-10 Cav1only 99-362 = experiment: ELISA after 1 week at 4 °C
sc9-10 Cav1only 100-360 = experiment: ELISA after 1 week at 4 °C
sc9-10 Cav1only 98-361 = experiment: ELISA after 1 week at 4 °C
[15] = target: sc9-10 N183GC N428C Long CAV1only; experiment: ELISA after 1 week at 4 °C
sc9-10 Cav1only 146-458 = experiment: ELISA after 1 week at 4 °C
[16] = target: RSV F DS-Cav1 (human RSV subtype A (strain A2)) (UniProt P03420); experiment: BLI (Octet), antibody reactivity over time at 60 °C
[17] = target: sc9-10 DS-Cav1 N183GC,N428C; experiment: as above
[18] = target: sc9-10 DS-Cav1 N183GC, N428C S46G-N67I-E92D-S215P-K465Q (A2); experiment: as above
[19] = target: sc9-10 DS-Cav1 A149C, Y458C S46G-E92D-S215P-K465Q (A2); experiment: as above
[20] = target: sc9-10 DS-Cav1 A149C, Y458C S46G-S215P-K465Q (A2); experiment: as above
[21] = target: sc9-10 DS-Cav1 A149C, Y458C S46G-N67I-E92D-S215P-K465Q (A2); experiment: as above
[22] = target: sc9-10 A DS-Cav1 A149C, Y458C; experiment: as above
[23] = target: bRSV F 391-2 sc9 DS-Cav1 Q98C Q361C (bovine RSV, strain 391-2) (UniProt P22167); experiment: Fab binding to purified bRSV F trimer (Octet BLI as in Example 1)
[24] = target: bRSV F ATue51908 sc9-10 DS-Cav1 A149C Y458C (bovine RSV, strain ATue51908 (NP_048055.1)); experiment: as above
[25] = target: bRSV F ATue51908 DS-Cav1 (bovine RSV, strain ATue51908) (UniProt P22167); experiment: as above
[26] = target: bRSV F strain 391-2 sc9-10, DS-Cav1, Q98C-Q361C (bovine RSV, strain 391-2); experiment: as above
[27] = target: bRSV F RB94 DS-Cav1 (bovine RSV, strain RB94) (UniProt P23728); experiment: as above
[28] = target: bRSV F 391-2 DS-Cav1 (bovine RSV, strain 391-2) (UniProt P22167); experiment: as above

Substance	Kd [1]	Kd [2]	Kd [3]	Kd [4]	Kd [5]	Kd [6]	Kd [7]	Kd (sc9 DS-Cav1-105Q)	Kd (sc9-19 DS-Cav1)	Kd [8]	Kd [9]	Kd [10]	Kd (sc9-24 DS-Cav1)	Kd [11]	Kd [12]	ELISA signal (antigenicity) (sc9-10 Cav1only 99-360)	ELISA signal (antigenicity) [14]	ELISA signal (antigenicity) (sc9-10 Cav1only 98-360)	ELISA signal (antigenicity) (RSVF dFP)	ELISA signal (antigenicity) (sc9-10 Cav1only 100-360)	other results
AM22 (Fab)	< 0.01 nM	2.8 nM	0.1 nM	0.2 nM	0.4 nM	0.1 nM	< 0.01 nM	< 0.01 nM	0.06 nM	0.3 nM	0.5 nM	0.2 nM	0.3 nM	< 0.01 nM	0.1 nM						Kd (sc11 DS-Cav1): 1.6 nM; Kd (sc10 DS-Cav1): 0.3 nM; Kd (sc8 DS-Cav1): 3.9 nM
Mota (antibody)																1.11	1.72	1.04	3.42	1.61	ELISA signal (antigenicity) (sc9-10 Cav1only 369-455): 2.5; ELISA signal (antigenicity) [13]: 2.55; ELISA signal (antigenicity) (sc9-10 Cav1only 100-361): 2.8; ELISA signal (antigenicity) (sc9-10 Cav1only): 3.59; ELISA signal (antigenicity) (sc9-10 Cav1only 99-361): 2.71; ELISA signal (antigenicity) (RSVF Cav1only): 3.35; ELISA signal (antigenicity) (sc9-10 Cav1only 100-362): 1.53; ELISA signal (antigenicity) (sc9-10 Cav1only 98-362): 0.828; ELISA signal (antigenicity) (sc9-10 Cav1only 99-362): 1.38; ELISA signal (antigenicity) (sc9-10 Cav1only 98-361): 2.24; ELISA signal (antigenicity) [15]: 2.07; ELISA signal (antigenicity) (sc9-10 Cav1only 146-458): 1.95
AM14 antibody																0.0553	1.71	0.199	0.05	0.344	T1/2 of AM14 reactivity at 60 °C [16]: 1.4 h; T1/2 of AM14 reactivity at 60 °C [17]: 33.8 h; T1/2 of AM14 reactivity at 60 °C [18]: 27.1 h; T1/2 of AM14 reactivity at 60 °C [19]: 8.3 h; T1/2 of AM14 reactivity at 60 °C [20]: 6 h; T1/2 of AM14 reactivity at 60 °C [21]: 7.5 h; T1/2 of AM14 reactivity at 60 °C [22]: 7.8 h; ELISA signal (antigenicity) (sc9-10 Cav1only 369-455): 0.0785; ELISA signal (antigenicity) [13]: 0.211; ELISA signal (antigenicity) (sc9-10 Cav1only 100-361): 0.0969; ELISA signal (antigenicity) (sc9-10 Cav1only): 3.31; ELISA signal (antigenicity) (sc9-10 Cav1only 99-361): 2.64; ELISA signal (antigenicity) (RSVF Cav1only): 2.81; ELISA signal (antigenicity) (sc9-10 Cav1only 100-362): 0.0541; ELISA signal (antigenicity) (sc9-10 Cav1only 98-362): 0.516; ELISA signal (antigenicity) (sc9-10 Cav1only 99-362): 0.805; ELISA signal (antigenicity) (sc9-10 Cav1only 98-361): 0.356; ELISA signal (antigenicity) [15]: 0.0514; ELISA signal (antigenicity) (sc9-10 Cav1only 146-458): 0.102
5C4 (Fab)	13 nM	17.9 nM	101 nM	14 nM	79.7 nM	35.8 nM	26.2 nM	28.8 nM	22.6 nM	315 nM	92.2 nM	127 nM	20.8 nM	31.3 nM	32.1 nM						Kd (sc11 DS-Cav1): 58.8 nM; Kd (sc10 DS-Cav1): 38.1 nM
MPE8 Fab	0.5 nM	< 0.01 nM	0.2 nM	0.1 nM	0.2 nM	0.2 nM	0.8 nM	0.8 nM	1 nM	0.2 nM	0.4 nM	0.2 nM	0.8 nM	0.8 nM	0.1 nM						Kd (sc11 DS-Cav1): 1.6 nM; Kd (sc10 DS-Cav1): 0.8 nM; Kd (sc8 DS-Cav1): 0.5 nM; Kd [23]: 0.4 nM; Kd [24]: 0.5 nM; Kd [25]: 0.2 nM; Kd [26]: 0.8 nM; Kd [27]: 0.2 nM; Kd [28]: 0.2 nM
AM14 Fab	3.3 nM	3.3 nM	18.5 nM	787 nM	2210 nM	33.9 nM	6.6 nM	46.2 nM	25.6 nM	15.9 nM	35.1 nM	1 nM	25.1 nM	33.1 nM	6.3 nM						Kd (sc8 DS-Cav1): 1330 nM; Kd [23]: 8.6 nM; Kd [24]: 12.8 nM; Kd [25]: 4.8 nM; Kd [26]: 12.8 nM; Kd [27]: 4.9 nM; Kd [28]: 1.8 nM
D25 antibody																1.4	2.13	1.14	0.902	1.76	T1/2 of D25 reactivity at 60 °C [16]: 3.2 h; T1/2 of D25 reactivity at 60 °C [17]: 42.4 h; T1/2 of D25 reactivity at 60 °C [18]: 23.3 h; T1/2 of D25 reactivity at 60 °C [19]: 26.7 h; T1/2 of D25 reactivity at 60 °C [20]: 23.4 h; T1/2 of D25 reactivity at 60 °C [21]: 26.4 h; T1/2 of D25 reactivity at 60 °C [22]: 16.5 h
MPE8 (antibody)																0.625	2.16	0.734	2.77	1.28	T1/2 of MPE8 reactivity at 60 °C [16]: 2 h; T1/2 of MPE8 reactivity at 60 °C [17]: 48.3 h; T1/2 of MPE8 reactivity at 60 °C [18]: 35.1 h; T1/2 of MPE8 reactivity at 60 °C [19]: 12.6 h; T1/2 of MPE8 reactivity at 60 °C [20]: 11.2 h; T1/2 of MPE8 reactivity at 60 °C [21]: 12.7 h; T1/2 of MPE8 reactivity at 60 °C [22]: 14.4 h; ELISA signal (antigenicity) (sc9-10 Cav1only 369-455): 2.32; ELISA signal (antigenicity) [13]: 2.5; ELISA signal (antigenicity) (sc9-10 Cav1only 100-361): 0.786; ELISA signal (antigenicity) (sc9-10 Cav1only): 3.54; ELISA signal (antigenicity) (sc9-10 Cav1only 99-361): 2.66; ELISA signal (antigenicity) (RSVF Cav1only): 3.08; ELISA signal (antigenicity) (sc9-10 Cav1only 100-362): 0.298; ELISA signal (antigenicity) (sc9-10 Cav1only 98-362): 0.845; ELISA signal (antigenicity) (sc9-10 Cav1only 99-362): 1.28; ELISA signal (antigenicity) (sc9-10 Cav1only 98-361): 1.4; ELISA signal (antigenicity) [15]: 0.228; ELISA signal (antigenicity) (sc9-10 Cav1only 146-458): 1.85
